This test has as its system KDM4A-I71AzF. Kind of test: CASI: photo-crosslinking with HEK293T cell extracts, StrepTactin enrichment and LC-MS/MS proteomics.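 Further: lysates from HEK293T cells pretreated with a KDM4 inhibitor to raise proteome methylation, affinity-purified after ±UV, gel-resolved, trypsin-digested, with exclusive unique peptides per protein averaged per condition.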 The test is classed as binding, human. The note with it: sheet "Final results but with 0.01".

B1: PYC_HUMAN (protein, UniProt P11498 21-1178, looked up)
Pyruvate carboxylase, …: TAPAASPNVRRLEYKPIKKVMVANRGEIAIRVFRACTELGIRTVAIYSEQDTGQMHRQKADEAYLIGRGLAPVQAYLHIPDIIKVAKENNVDAVHPGYGFLSERADFAQACQDAGVRFIGPSPEVVRKMGDKVEARAIAIAAGVPVVPGTDAPITSLHEAHEFSNTYGFPIIFKAAYGGGGRGMRVVHSYEELEENYTRAYSEALAAFGNGALFVEKFIEKPRHIEVQILGDQYGNILHLYERDCSIQRRHQKVVEIAPAAHLDPQLRTRLTSDSVKLAKQVGYENAGTVEFLVDRHGKHYFIEVNSRLQVEHTVTEEITDVDLVHAQIHVAEGRSLPDLGLRQENIRINGCAIQCRVTTEDPARSFQPDTGRIEVFRSGEGMGIRLDNASAFQGAVISPHYDSLLVKVIAHGKDHPTAATKMSRALAEFRVRGVKTNIAFLQNVLNNQQFLAGTVDTQFIDENPELFQLRPAQNRAQKLLHYLGHVMVNGPTTPIPVKASPSPTDPVVPAVPIGPPPAGFRDILLREGPEGFARAVRNHPGLLLMDTTFRDAHQSLLATRVRTHDLKKIAPYVAHNFSKLFSMENWGGATFDVAMRFLYECPWRRLQELRELIPNIPFQMLLRGANAVGYTNYPDNVVFKFCEVAKENGMDVFRVFDSLNYLPNMLLGMEAAGSAGGVVEAAISYTGDVADPSRTKYSLQYYMGLAEELVRAGTHILCIKDMAGLLKPTACTMLVSSLRDRFPDLPLHIHTHDTSGAGVAAMLACAQAGADVVDVAADSMSGMTSQPSMGALVACTRGTPLDTEVPMERVFDYSEYWEGARGLYAAFDCTATMKSGNSDVYENEIPGGQYTNLHFQAHSMGLGSKFKEVKKAYVEANQMLGDLIKVTPSSKIVGDLAQFMVQNGLSRAEAEAQAEELSFPRSVVEFLQGYIGVPHGGFPEPFRSKVLKDLPRVEGRPGASLPPLDLQALEKELVDRHGEEVTPEDVLSAAMYPDVFAHFKDFTATFGPLDSLNTRLFLQGPKIAEEFEVELERGKTLHIKALAVSDLNRAGQRQVFFELNGQLRSILVKDTQAMKEMHFHPKALKDVKGQIGAPMPGKVIDIKVVAGAKVAKGQPLCVLSAMKMETVVTSPMEGTVRKVHVTKDMTLEGDDLILEIE
B1: the “Fold change (+UV/-UV)” value turned out to be 0.3333.

B2: PRP16_HUMAN (protein, UniProt Q92620 2-1227, looked up)
Pre-mRNA-splicing factor …: GDTSEDASIHRLEGTDLDCQVGGLICKSKSAASEQHVFKAPAPRPSLLGLDLLASLKRREREEKDDGEDKKKSKVSSYKDWEESKDDQKDAEEEGGDQAGQNIRKDRHYRSARVETPSHPGGVSEEFWERSRQRERERREHGVYASSKEEKDWKKEKSRDRDYDRKRDRDERDRSRHSSRSERDGGSERSSRRNEPESPRHRPKDAATPSRSTWEEEDSGYGSSRRSQWESPSPTPSYRDSERSHRLSTRDRDRSVRGKYSDDTPLPTPSYKYNEWADDRRHLGSTPRLSRGRGRREEGEEGISFDTEEERQQWEDDQRQADRDWYMMDEGYDEFHNPLAYSSEDYVRRREQHLHKQKQKRISAQRRQINEDNERWETNRMLTSGVVHRLEVDEDFEEDNAAKVHLMVHNLVPPFLDGRIVFTKQPEPVIPVKDATSDLAIIARKGSQTVRKHREQKERKKAQHKHWELAGTKLGDIMGVKKEEEPDKAVTEDGKVDYRTEQKFADHMKRKSEASSEFAKKKSILEQRQYLPIFAVQQELLTIIRDNSIVIVVGETGSGKTTQLTQYLHEDGYTDYGMIGCTQPRRVAAMSVAKRVSEEMGGNLGEEVGYAIRFEDCTSENTLIKYMTDGILLRESLREADLDHYSAIIMDEAHERSLNTDVLFGLLREVVARRSDLKLIVTSATMDAEKFAAFFGNVPIFHIPGRTFPVDILFSKTPQEDYVEAAVKQSLQVHLSGAPGDILIFMPGQEDIEVTSDQIVEHLEELENAPALAVLPIYSQLPSDLQAKIFQKAPDGVRKCIVATNIAETSLTVDGIMFVIDSGYCKLKVFNPRIGMDALQIYPISQANANQRSGRAGRTGPGQCFRLYTQSAYKNELLTTTVPEIQRTNLANVVLLLKSLGVQDLLQFHFMDPPPEDNMLNSMYQLWILGALDNTGGLTSTGRLMVEFPLDPALSKMLIVSCDMGCSSEILLIVSMLSVPAIFYRPKGREEESDQIREKFAVPESDHLTYLNVYLQWKNNNYSTIWCNDHFIHAKAMRKVREVRAQLKDIMVQQRMSLASCGTDWDIVRKCICAAYFHQAAKLKGIGEYVNIRTGMPCHLHPTSSLFGMGYTPDYIVYHELVMTTKEYMQCVTAVDGEWLAELGPMFYSVKQAGKSRQENRRRAKEEASAMEEEMALAEEQLRARRQEQEKRSPLGSVRSTKIYTPGRKEQGEPMTPRRTPARFGL
Turning to B2, the “Fold change (+UV/-UV)” value was 0.

B3: RRP44_HUMAN (protein, UniProt Q9Y2L1 1-958, looked up)
Exosome complex exonuclease …: MLKSKTFLKKTRAGGVMKIVREHYLRDDIGCGAPGCAACGGAHEGPALEPQPQDPASSVCPQPHYLLPDTNVLLHQIDVLEDPAIRNVIVLQTVLQEVRNRSAPVYKRIRDVTNNQEKHFYTFTNEHHRETYVEQEQGENANDRNDRAIRVAAKWYNEHLKKMSADNQLQVIFITNDRRNKEKAIEEGIPAFTCEEYVKSLTANPELIDRLACLSEEGNEIESGKIIFSEHLPLSKLQQGIKSGTYLQGTFRASRENYLEATVWIHGDNEENKEIILQGLKHLNRAVHEDIVAVELLPKSQWVAPSSVVLHDEGQNEEDVEKEEETERMLKTAVSEKMLKPTGRVVGIIKRNWRPYCGMLSKSDIKESRRHLFTPADKRIPRIRIETRQASTLEGRRIIVAIDGWPRNSRYPNGHFVRNLGDVGEKETETEVLLLEHDVPHQPFSQAVLSFLPKMPWSITEKDMKNREDLRHLCICSVDPPGCTDIDDALHCRELENGNLEVGVHIADVSHFIRPGNALDQESARRGTTVYLCEKRIDMVPELLSSNLCSLKCDVDRLAFSCIWEMNHNAEILKTKFTKSVINSKASLTYAEAQLRIDSANMNDDITTSLRGLNKLAKILKKRRIEKGALTLSSPEVRFHMDSETHDPIDLQTKELRETNSMVEEFMLLANISVAKKIHEEFSEHALLRKHPAPPPSNYEILVKAARSRNLEIKTDTAKSLAESLDQAESPTFPYLNTLLRILATRCMMQAVYFCSGMDNDFHHYGLASPIYTHFTSPIRRYADVIVHRLLAVAIGADCTYPELTDKHKLADICKNLNFRHKMAQYAQRASVAFHTQLFFKSKGIVSEEAYILFVRKNAIVVLIPKYGLEGTVFFEEKDKPNPQLIYDDEIPSLKIEDTVFHVFDKVKVKIMLDSSNLQHQKIRMSLVEPQIPGISIPTDTSNMDLNGPKKKKMKLGK
As for B3, the “Fold change (+UV/-UV)” value came out at 0.6.

B4: KRT83_HUMAN (protein, UniProt P78385 1-493, looked up)
Keratin, type II cuticular Hb3: MTCGFNSIGCGFRPGNFSCVSACGPRPSRCCITAAPYRGISCYRGLTGGFGSHSVCGGFRAGSCGRSFGYRSGGVCGPSPPCITTVSVNESLLTPLNLEIDPNAQCVKQEEKEQIKSLNSRFAAFIDKVRFLEQQNKLLETKLQFYQNRECCQSNLEPLFAGYIETLRREAECVEADSGRLASELNHVQEVLEGYKKKYEEEVALRATAENEFVALKKDVDCAYLRKSDLEANVEALIQEIDFLRRLYEEEIRILQSHISDTSVVVKLDNSRDLNMDCIVAEIKAQYDDIATRSRAEAESWYRSKCEEMKATVIRHGETLRRTKEEINELNRMIQRLTAEVENAKCQNSKLEAAVAQSEQQGEAALSDARCKLAELEGALQKAKQDMACLIREYQEVMNSKLGLDIEIATYRRLLEGEEQRLCEGVEAVNVCVSSSRGGVVCGDLCVSGSRPVTGSVCSAPCNGNLVVSTGLCKPCGQLNTTCGGGSCGQGRH
Regarding B4, the “Fold change (+UV/-UV)” value was 10.

B5: SIN3A_HUMAN (protein, UniProt Q96ST3 1-1273, looked up)
Paired amphipathic helix …: MKRRLDDQESPVYAAQQRRIPGSTEAFPHQHRVLAPAPPVYEAVSETMQSATGIQYSVTPSYQVSAMPQSSGSHGPAIAAVHSSHHHPTAVQPHGGQVVQSHAHPAPPVAPVQGQQQFQRLKVEDALSYLDQVKLQFGSQPQVYNDFLDIMKEFKSQSIDTPGVISRVSQLFKGHPDLIMGFNTFLPPGYKIEVQTNDMVNVTTPGQVHQIPTHGIQPQPQPPPQHPSQPSAQSAPAPAQPAPQPPPAKVSKPSQLQAHTPASQQTPPLPPYASPRSPPVQPHTPVTISLGTAPSLQNNQPVEFNHAINYVNKIKNRFQGQPDIYKAFLEILHTYQKEQRNAKEAGGNYTPALTEQEVYAQVARLFKNQEDLLSEFGQFLPDANSSVLLSKTTAEKVDSVRNDHGGTVKKPQLNNKPQRPSQNGCQIRRHPTGTTPPVKKKPKLLNLKDSSMADASKHGGGTESLFFDKVRKALRSAEAYENFLRCLVIFNQEVISRAELVQLVSPFLGKFPELFNWFKNFLGYKESVHLETYPKERATEGIAMEIDYASCKRLGSSYRALPKSYQQPKCTGRTPLCKEVLNDTWVSFPSWSEDSTFVSSKKTQYEEHIYRCEDERFELDVVLETNLATIRVLEAIQKKLSRLSAEEQAKFRLDNTLGGTSEVIHRKALQRIYADKAADIIDGLRKNPSIAVPIVLKRLKMKEEEWREAQRGFNKVWREQNEKYYLKSLDHQGINFKQNDTKVLRSKSLLNEIESIYDERQEQATEENAGVPVGPHLSLAYEDKQILEDAAALIIHHVKRQTGIQKEDKYKIKQIMHHFIPDLLFAQRGDLSDVEEEEEEEMDVDEATGAVKKHNGVGGSPPKSKLLFSNTAAQKLRGMDEVYNLFYVNNNWYIFMRLHQILCLRLLRICSQAERQIEEENREREWEREVLGIKRDKSDSPAIQLRLKEPMDVDVEDYYPAFLDMVRSLLDGNIDSSQYEDSLREMFTIHAYIAFTMDKLIQSIVRQLQHIVSDEICVQVTDLYLAENNNGATGGQLNTQNSRSLLESTYQRKAEQLMSDENCFKLMFIQSQGQVQLTIELLDTEEENSDDPVEAERWSDYVERYMNSDTTSPELREHLAQKPVFLPRNLRRIRKCQRGREQQEKEGKEGNSKKTMENVDSLDKLECRFKLNSYKMVYVIKSEDYMYRRTALLRAHQSHERVSKRLHQRFQAWVDKWTKEHVPREMAAETSKWLMGEGLEGLVPCTTTCDTETLHFVSINKYRVKYGTVFKAP
With B5, the “Fold change (+UV/-UV)” value is listed as 1.333.

B6: IPO5_HUMAN (protein, UniProt O00410 2-1097, looked up)
Importin-5: AAAAAEQQQFYLLLGNLLSPDNVVRKQAEETYENIPGQSKITFLLQAIRNTTAAEEARQMAAVLLRRLLSSAFDEVYPALPSDVQTAIKSELLMIIQMETQSSMRKKVCDIAAELARNLIDEDGNNQWPEGLKFLFDSVSSQNVGLREAALHIFWNFPGIFGNQQQHYLDVIKRMLVQCMQDQEHPSIRTLSARATAAFILANEHNVALFKHFADLLPGFLQAVNDSCYQNDDSVLKSLVEIADTVPKYLRPHLEATLQLSLKLCGDTSLNNMQRQLALEVIVTLSETAAAMLRKHTNIVAQTIPQMLAMMVDLEEDEDWANADELEDDDFDSNAVAGESALDRMACGLGGKLVLPMIKEHIMQMLQNPDWKYRHAGLMALSAIGEGCHQQMEGILNEIVNFVLLFLQDPHPRVRYAACNAVGQMATDFAPGFQKKFHEKVIAALLQTMEDQGNQRVQAHAAAALINFTEDCPKSLLIPYLDNLVKHLHSIMVLKLQELIQKGTKLVLEQVVTSIASVADTAEEKFVPYYDLFMPSLKHIVENAVQKELRLLRGKTIECISLIGLAVGKEKFMQDASDVMQLLLKTQTDFNDMEDDDPQISYMISAWARMCKILGKEFQQYLPVVMGPLMKTASIKPEVALLDTQDMENMSDDDGWEFVNLGDQQSFGIKTAGLEEKSTACQMLVCYAKELKEGFVEYTEQVVKLMVPLLKFYFHDGVRVAAAESMPLLLECARVRGPEYLTQMWHFMCDALIKAIGTEPDSDVLSEIMHSFAKCIEVMGDGCLNNEHFEELGGILKAKLEEHFKNQELRQVKRQDEDYDEQVEESLQDEDDNDVYILTKVSDILHSIFSSYKEKVLPWFEQLLPLIVNLICPHRPWPDRQWGLCIFDDVIEHCSPASFKYAEYFLRPMLQYVCDNSPEVRQAAAYGLGVMAQYGGDNYRPFCTEALPLLVRVIQSADSKTKENVNATENCISAVGKIMKFKPDCVNVEEVLPHWLSWLPLHEDKEEAVQTFNYLCDLIESNHPIVLGPNNTNLPKIFSIIAEGEMHEAIKHEDPCAKRLANVVRQVQTSGGLWTECIAQLSPEQQAAIQELLNSA
For the molecule B6, the “Fold change (+UV/-UV)” value was determined as 1.

The record behind these values is publication PMC10540216, “Activity Guided Azide-methyllysine Photo-trapping for Substrate Profiling of Lysine Demethylases” (Journal of the American Chemical Society, 2023).
